Experimental data as given in publication PMC6181919, “A cysteine-based molecular code informs collagen C-propeptide assembly” (Nature Communications, 2018).

Experiments:
[1] = target: the molecule itself; experiment: non-reducing SDS-PAGE immunoblot; cell lysate of transfected HEK293 cells (protein not secreted), non-reducing; denaturing, shows disulfide-linked species only
[2] = target: the molecule itself; experiment: non-reducing SDS-PAGE immunoblot; conditioned media of transfected HEK293 cells, treated with 100 mM iodoacetamide, boiled in SDS, 12% gel, non-reducing; denaturing, shows disulfide-linked species only; two-colour detection of HA and FLAG
[3] = target: the molecule itself; experiment: AUC; sedimentation equilibrium, 25 °C, 20 mM Bis-Tris propane pH 7, 150 mM NaCl, without Ca^2+; equilibrium constants are of monomer to dimer
[4] = target: the molecule itself; experiment: SEC; size exclusion chromatography in the presence and absence of Ca^2+, compared to wild-type C-Proα1(I)
[5] = target: the molecule itself; experiment: AUC; sedimentation equilibrium, 25 °C, 20 mM Bis-Tris propane pH 7, 150 mM NaCl, with 0.5 mM CaCl2; monomer to trimer

B1: wild-type, HA-tagged C-Proα2(XI) (domain or fragment, human, UniProt P13942 1501-1736, looked up)
chain: IQPLPIQMPKKTRRSVDGSRLMQEDEAIPTGGAPGSPGGLEEIFGSLDSLREEIEQMRRPTGTQDSPARTCQDLKLCHPELPDGEYWVDPNQGCARDAFRVFCNFTAGGETCVTPRDDVTQFSYVDSEGSPVGVVQLTFLRLLSVSAHQDVSYPCSGAARDGPLRLRGANEDELSPETSPYVKEFRDGCQTQQGRTVLEVRTPVLEQLPVLDASFSDLGAPPRRGGVLLGPVCFMG
notes: C-propeptide (C-Pro) domain of human procollagen alpha2(XI); gene bought from Genewiz; source: HEK293, transfected, not secreted, in cell lysate; not shown: HA, N-terminal, kept
- stoichiometry N [1]: 3

B2: wild-type, HA-tagged C-Proα1(I) (C-propeptide domain of human Colα1(I)) (domain or fragment)
chain: DDANVVRDRDLEVDTTLKSLSQQIENIRSPEGSRKNPARTCRDLKMCHSDWKSGEYWIDPNQGCNLDAIKVFCNMETGETCVYPTQPSVAQKNWYISKNPKDKRHVWFGESMTDGFQFEYGGQGSDPADVAIQLTFLRLMSTEASQNITYHCKNSVAYMDQQTGNLKKALLLQGSNEIEIRAEGNSRFTYSVTVDGCTSHTGAWGKTVIEYKTTKTSRLPIIDVAPLDVGAPDQEFGFDVGPVCFL
notes: C-propeptide (C-Pro) domain of human procollagen alpha1(I), from the endogenous C-proteinase cleavage site to the C-terminus; Secreted alone it is a disulfide-linked homotrimer; also called wild-type C-Proα1(I); Colα1(I) C-Pro; not shown: HA, N-terminal, kept
- stoichiometry N [2]: 3

B3: purified wild-type C-Proα1(I), His tag cleaved (domain or fragment, human)
chain: DDANVVRDRDLEVDTTLKSLSQQIENIRSPEGSRKNPARTCRDLKMCHSDWKSGEYWIDPNQGCNLDAIKVFCNMETGETCVYPTQPSVAQKNWYISKNPKDKRHVWFGESMTDGFQFEYGGQGSDPADVAIQLTFLRLMSTEASQNITYHCKNSVAYMDQQTGNLKKALLLQGSNEIEIRAEGNSRFTYSVTVDGCTSHTGAWGKTVIEYKTTKTSRLPIIDVAPLDVGAPDQEFGFDVGPVCFL
modifications: glycosylated (a single N-glycosylation site in the polypeptide; site not given)
notes: C-propeptide (C-Pro) domain of human procollagen alpha1(I), from the endogenous C-proteinase cleavage site to the C-terminus; The HA/FLAG vectors were modified to carry a cleavable 6x-His tag with an HRV-3C site; Interstrand disulfide-linked homotrimer; source: HEK293 Freestyle, transfected, secreted, purified (Ni-NTA, HRV-3C cleavage, second Ni-NTA, Superdex 200)
- stoichiometry N [3]: 3

B4: Asp1277His C-Proα1(I) (domain or fragment, human)
chain: DDANVVRDRDLEVDTTLKSLSQQIENIRSPEGSRKNPARTCRDLKMCHSDWKSGEYWIHPNQGCNLDAIKVFCNMETGETCVYPTQPSVAQKNWYISKNPKDKRHVWFGESMTDGFQFEYGGQGSDPADVAIQLTFLRLMSTEASQNITYHCKNSVAYMDQQTGNLKKALLLQGSNEIEIRAEGNSRFTYSVTVDGCTSHTGAWGKTVIEYKTTKTSRLPIIDVAPLDVGAPDQEFGFDVGPVCFL
notes: C-propeptide (C-Pro) domain of human procollagen alpha1(I) with the osteogenesis imperfecta-causing substitution Asp1277His
- stoichiometry N [4]: 2

B5: purified C2S (Cys1265Ser) C-Proα1(I), His tag cleaved (domain or fragment, human)
chain: DDANVVRDRDLEVDTTLKSLSQQIENIRSPEGSRKNPARTCRDLKMSHSDWKSGEYWIDPNQGCNLDAIKVFCNMETGETCVYPTQPSVAQKNWYISKNPKDKRHVWFGESMTDGFQFEYGGQGSDPADVAIQLTFLRLMSTEASQNITYHCKNSVAYMDQQTGNLKKALLLQGSNEIEIRAEGNSRFTYSVTVDGCTSHTGAWGKTVIEYKTTKTSRLPIIDVAPLDVGAPDQEFGFDVGPVCFL
modifications: glycosylated (a single N-glycosylation site in the polypeptide; site not given)
notes: C-propeptide (C-Pro) domain of human procollagen alpha1(I), from the endogenous C-proteinase cleavage site to the C-terminus; also called C2S C-Proα1(I); source: HEK293 Freestyle, transfected, secreted, purified (Ni-NTA, HRV-3C cleavage, second Ni-NTA, Superdex 200)
- stoichiometry N [5]: 3
- Ka [3]: 76300 M⁻¹
- stoichiometry N [3]: 2
